In the supplement of paper PMC9170038:

Tested on: K4 kissing-loop RNA reporter
Assay: apparent KD of K4 kissing-loop reporter; higher = weaker reporter binding
Settings: Eterna round: R107
Method: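 RNA-MaP round R107: designed RNA switches with theophylline, tryptophan, arginine or FMN aptamers are transcribed on-chip within common flanks. They are titrated with a labelled K4 kissing-loop RNA reporter in RNA-MaP buffer (100 mM Tris pH 7.5, 80 mM KCl, 4 mM MgCl2), without ligand or with the indicated ligand. Median apparent KD per design.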

[1] = input ligand: theophylline 20 uM
[2] = input ligand: tryptophan 2.4 mM
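Further: bound reporter read as fluorescence of individual clusters on recovered sequencing chips by microscopy, with normalized cluster intensities fitted with a binding model.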

Sequence: UCCUGCAAUGGACCACGAAAGUGGAUCGAUACCAGAGUCGAAAGACUCCCUUGGCAGCGAGUGAUGUUCGAAGCAGGUAAAUAAA [#SwitchBubble 21 #K4Late]
- apparent KD of K4 kissing-loop reporter (input ligand: FMN 200 uM): 492 nM
- apparent KD of K4 kissing-loop reporter (input ligand: arginine 13.2 mM): 483 nM
- apparent KD of K4 kissing-loop reporter (input ligand: none): 478 nM
- apparent KD of K4 kissing-loop reporter [1]: 410 nM
- apparent KD of K4 kissing-loop reporter [2]: 358 nM

Sequence: UCGAGUUGACGAAGAGUCAACUCGUGUGAUACCAGUGACGAAAGUCACCCUUGGCAGCACUAUGCUAGUGAUGUUGGUAUUUAAG [#08 K4 Theophylline A Same State]
- apparent KD of K4 kissing-loop reporter (input ligand: FMN 200 uM): 190 nM
- apparent KD of K4 kissing-loop reporter (input ligand: arginine 13.2 mM): 92.7 nM
- apparent KD of K4 kissing-loop reporter (input ligand: none): 179 nM
- apparent KD of K4 kissing-loop reporter [1]: 105 nM
- apparent KD of K4 kissing-loop reporter [2]: 127 nM

Sequence: UCUAACGUUGAGGCGGCAGCGGGCCCAUCUAAGGAUAUCGGUUUACCGAGAAGGUAGUUGGACGAGAGUGAUGUUCUAUUGAGAG [theeternabot_sameState_KL_FMN_A_18]
- apparent KD of K4 kissing-loop reporter (input ligand: FMN 200 uM): 207 nM
- apparent KD of K4 kissing-loop reporter (input ligand: arginine 13.2 mM): 211 nM
- apparent KD of K4 kissing-loop reporter (input ligand: none): 254 nM
- apparent KD of K4 kissing-loop reporter [1]: 642 nM
- apparent KD of K4 kissing-loop reporter [2]: 159 nM

Sequence: UCUGGAGGAUAUGAUACCAGCAGUGAGAGAGAGGAAGUAUAGUGAUGUUAUAUGAGAGAAUGCCCUUGGCAGCGUGUGUAGUGGG [SSTheophylB.L]
- apparent KD of K4 kissing-loop reporter (input ligand: FMN 200 uM): 175 nM
- apparent KD of K4 kissing-loop reporter (input ligand: arginine 13.2 mM): 137 nM
- apparent KD of K4 kissing-loop reporter (input ligand: none): 135 nM
- apparent KD of K4 kissing-loop reporter [1]: 151 nM
- apparent KD of K4 kissing-loop reporter [2]: 86.6 nM

Sequence: UCUGGUAUAUCUGAUACCAGAGUAUAGUAUCAAUUGCAUAUGGAGUGAUGUUCCAUAUAACUCCCUUGGCAGCAGAUCUAUCUCU [Same State Theophylline B GF 25]
- apparent KD of K4 kissing-loop reporter (input ligand: FMN 200 uM): 292 nM
- apparent KD of K4 kissing-loop reporter (input ligand: arginine 13.2 mM): 308 nM
- apparent KD of K4 kissing-loop reporter (input ligand: none): 325 nM
- apparent KD of K4 kissing-loop reporter [1]: 386 nM
- apparent KD of K4 kissing-loop reporter [2]: 288 nM

Sequence: UGACAUUGCUCAGAUACCAGACAAGAGGAUCACCCUUGUGCCAAACGUACAAUAAUAAUUGUCCCUUGGCAGCUGAGCAAUGUCU [TheoBX 14]
- apparent KD of K4 kissing-loop reporter (input ligand: FMN 200 uM): 73.2 nM
- apparent KD of K4 kissing-loop reporter (input ligand: arginine 13.2 mM): 25.4 nM
- apparent KD of K4 kissing-loop reporter (input ligand: none): 16.3 nM
- apparent KD of K4 kissing-loop reporter [1]: 80.7 nM
- apparent KD of K4 kissing-loop reporter [2]: 51.6 nM

Sequence: UGACAUUGCUCAGAUACCAGACUUGAGGAACACCCAAGUGCCAAACGUACAAUAAUAAAAGUCCCUUGGCAGCUGAGCAAUGUCU [TheoBX 14]
- apparent KD of K4 kissing-loop reporter (input ligand: FMN 200 uM): 111 nM
- apparent KD of K4 kissing-loop reporter (input ligand: arginine 13.2 mM): 53.6 nM
- apparent KD of K4 kissing-loop reporter (input ligand: none): 82.1 nM
- apparent KD of K4 kissing-loop reporter [1]: 62.8 nM
- apparent KD of K4 kissing-loop reporter [2]: 59.8 nM

Sequence: UGACUGGACUGAAGGAGCGAGCGAGACAAAGUCUCGAAAAUUCAGUGAUGUUGAAAUAUAACUCAGGUAGGUCGCAGUCUAGUCU [ArgBS 4 #SwitchBubble #StaticStem]
- apparent KD of K4 kissing-loop reporter (input ligand: FMN 200 uM): 328 nM
- apparent KD of K4 kissing-loop reporter (input ligand: arginine 13.2 mM): 303 nM
- apparent KD of K4 kissing-loop reporter (input ligand: none): 377 nM
- apparent KD of K4 kissing-loop reporter [1]: 313 nM
- apparent KD of K4 kissing-loop reporter [2]: 304 nM

Sequence: UGACUGGACUGAAGGAGCGCUAAACUCCUAGUGAUGUUAGGAAAACGAGACAAAGUCUCGAAGCAGGUAGGUCGCAGUCUAGUCU
- apparent KD of K4 kissing-loop reporter (input ligand: FMN 200 uM): 172 nM
- apparent KD of K4 kissing-loop reporter (input ligand: arginine 13.2 mM): 147 nM
- apparent KD of K4 kissing-loop reporter (input ligand: none): 177 nM
- apparent KD of K4 kissing-loop reporter [1]: 162 nM
- apparent KD of K4 kissing-loop reporter [2]: 169 nM

Sequence: UGACUGGACUGAAGGAGCGCUAAACUCCUAGUGAUGUUAGGAAAUACGAGACAAAGUCUCGGGCAGGUAGGUCGCAGUCUAGUCU [ArgBS 19 #SwitchBubble #StaticStem]
- apparent KD of K4 kissing-loop reporter (input ligand: FMN 200 uM): 122 nM
- apparent KD of K4 kissing-loop reporter (input ligand: arginine 13.2 mM): 118 nM
- apparent KD of K4 kissing-loop reporter (input ligand: none): 132 nM
- apparent KD of K4 kissing-loop reporter [1]: 128 nM
- apparent KD of K4 kissing-loop reporter [2]: 101 nM

Sequence: UGACUGGACUGAAGGAGCGCUAAACUCCUAGUGAUGUUAGGAUAACGAGACAAAGUCUCGAAGCAGGUAGGUCGCAGUCUAGUCU
- apparent KD of K4 kissing-loop reporter (input ligand: FMN 200 uM): 149 nM
- apparent KD of K4 kissing-loop reporter (input ligand: arginine 13.2 mM): 110 nM
- apparent KD of K4 kissing-loop reporter (input ligand: none): 117 nM
- apparent KD of K4 kissing-loop reporter [1]: 133 nM
- apparent KD of K4 kissing-loop reporter [2]: 128 nM

Sequence: UGACUGGACUGAAGGAGCGCUGAACUCCUAGUGAUGUUAGGACAACGAGACAAAGUCUCGAAGCAGGUAGGUCGCAGUCUAGUCU
- apparent KD of K4 kissing-loop reporter (input ligand: FMN 200 uM): 154 nM
- apparent KD of K4 kissing-loop reporter (input ligand: arginine 13.2 mM): 129 nM
- apparent KD of K4 kissing-loop reporter (input ligand: none): 154 nM
- apparent KD of K4 kissing-loop reporter [1]: 152 nM
- apparent KD of K4 kissing-loop reporter [2]: 184 nM

Sequence: UGACUGGACUGAAGGAGCGCUGAACUCCUAGUGAUGUUAGGACAACGAGACAAAGUCUCGCGGCAGGUAGGUCGCAGUCUAGUCU
- apparent KD of K4 kissing-loop reporter (input ligand: FMN 200 uM): 159 nM
- apparent KD of K4 kissing-loop reporter (input ligand: arginine 13.2 mM): 119 nM
- apparent KD of K4 kissing-loop reporter (input ligand: none): 121 nM
- apparent KD of K4 kissing-loop reporter [1]: 145 nM
- apparent KD of K4 kissing-loop reporter [2]: 131 nM

Sequence: UGACUGGACUGAAGGAGCGCUUAACUCCUAGUGAUGUUAGGACAACGAGACAAAGUCUCGAAGCAGGUAGGUCGCAGUCUAGUCU
- apparent KD of K4 kissing-loop reporter (input ligand: FMN 200 uM): 217 nM
- apparent KD of K4 kissing-loop reporter (input ligand: arginine 13.2 mM): 155 nM
- apparent KD of K4 kissing-loop reporter (input ligand: none): 204 nM
- apparent KD of K4 kissing-loop reporter [1]: 198 nM
- apparent KD of K4 kissing-loop reporter [2]: 199 nM

Sequence: UGACUGGACUGAAGGAGCGGGCGAGACAAAGUCUCGAACUCGUAGUGAUGUUACGAAAUAACCCAGGUAGGUCGCAGUCUAGUCU
- apparent KD of K4 kissing-loop reporter (input ligand: FMN 200 uM): 77.8 nM
- apparent KD of K4 kissing-loop reporter (input ligand: arginine 13.2 mM): 62 nM
- apparent KD of K4 kissing-loop reporter (input ligand: none): 74.9 nM
- apparent KD of K4 kissing-loop reporter [1]: 67.2 nM
- apparent KD of K4 kissing-loop reporter [2]: 74.9 nM
